# Results from the Human Domainome abundance scans (Beltran et al. 2025).
# ± gives the uncertainty stated by the source.
# B1: Chromodomain-helicase-DNA-binding protein 4, residues 623 to 675; numbered along this chain, Q14839 (parent)
# chain: MIHRILNHSVDKKGHVHYLIKWRDLPYDQASWESEDVEIQDYDLFKQSYWNHR
# Variants of: B1
# Test: abundance fitness (aPCA) (normalised: wild type 0, dead -1); higher = more abundant; growth selection in yeast, the domain comes from the species named
# Settings: Homo sapiens
row,Variant,abundance fitness
1,I20A,-0.921 ± 0.1
2,K13C,-0.267 ± 0.093
3,K13G,-0.335 ± 0.089
4,K13H,-0.062 ± 0.09
5,K13D,0.098 ± 0.1
6,K13M,-0.162 ± 0.12
7,K13R,-0.196 ± 0.084
8,K13N,-0.123 ± 0.093
9,K13E,-0.066 ± 0.13
10,K13L,-0.36 ± 0.078
11,K13Y,-0.214 ± 0.092
12,K13T,-0.344 ± 0.088
13,K13F,-0.079 ± 0.088
14,K13A,-0.25 ± 0.085
15,K13I,-0.588 ± 0.1
16,K13P,-0.828 ± 0.11
17,K13W,-0.492 ± 0.16
18,K13V,-0.263 ± 0.088
19,K13S,-0.098 ± 0.073
20,K13Q,-0.133 ± 0.11
21,L6F,-0.73 ± 0.12
22,L6W,-1.07 ± 0.2
23,L6P,-0.695 ± 0.11
24,L6K,-0.918 ± 0.26

row,Variant,abundance fitness
1,L6N,-0.804 ± 0.12
2,L6A,-0.79 ± 0.12
3,L6Y,-0.735 ± 0.12
4,L6I,-0.046 ± 0.087
5,L6D,-0.907 ± 0.15
6,L6C,-0.333 ± 0.11
7,L6M,-0.542 ± 0.17
8,L6S,-0.824 ± 0.096
9,L6R,-0.805 ± 0.11
10,L6H,-0.76 ± 0.11
11,L6T,-0.75 ± 0.1
12,L6V,-0.231 ± 0.089
13,L6Q,-0.6 ± 0.17
14,W22E,-0.823 ± 0.2
15,W22P,-0.959 ± 0.15
16,W22R,-0.855 ± 0.12
17,W22S,-0.806 ± 0.097
18,W22N,-1.13 ± 0.37
19,W22T,-0.871 ± 0.15
20,W22A,-0.889 ± 0.14
21,W22H,-0.733 ± 0.18
22,W22L,-0.795 ± 0.091
23,W22V,-0.55 ± 0.11
24,W22K,-0.891 ± 0.23

row,Variant,abundance fitness
1,W22Q,-0.796 ± 0.17
2,W22C,-0.793 ± 0.14
3,W22I,-0.797 ± 0.23
4,W22F,-0.825 ± 0.16
5,W22G,-0.88 ± 0.16
6,W22M,-0.447 ± 0.18
7,R4H,-0.108 ± 0.14
8,R4S,-0.117 ± 0.087
9,R4M,-0.136 ± 0.12
10,R4P,-0.788 ± 0.14
11,R4V,-0.371 ± 0.11
12,R4Y,-0.102 ± 0.15
13,R4G,-0.481 ± 0.1
14,R4T,-0.047 ± 0.1
15,R4N,-0.331 ± 0.15
16,R4E,0.058 ± 0.14
17,R4Q,-0.233 ± 0.16
18,R4W,-0.263 ± 0.12
19,R4L,-0.221 ± 0.09
20,R4K,0.145 ± 0.11
21,K12P,-0.083 ± 0.14
22,K12Y,-0.184 ± 0.13
23,K12L,-0.239 ± 0.099
24,K12G,-0.078 ± 0.091

row,Variant,abundance fitness
1,K12H,0.01 ± 0.14
2,K12N,-0.073 ± 0.12
3,K12F,-0.514 ± 0.13
4,K12S,-0.074 ± 0.092
5,K12V,-0.171 ± 0.1
6,K12R,-0.246 ± 0.12
7,K12M,0 ± 0.13
8,K12Q,-0.084 ± 0.25
9,K12E,-0.158 ± 0.2
10,K12D,-0.103 ± 0.15
11,K12A,-0.01 ± 0.1
12,K12W,-0.19 ± 0.15
13,K12I,-0.136 ± 0.11
14,I5H,-0.721 ± 0.13
15,I5D,-0.999 ± 0.2
16,I5N,-1.01 ± 0.21
17,I5Y,-1.02 ± 0.19
18,I5P,-0.522 ± 0.14
19,I5Q,-0.591 ± 0.2
20,I5A,-0.778 ± 0.14
21,I5L,-0.497 ± 0.099
22,I5M,-0.746 ± 0.21
23,I5R,-0.81 ± 0.11
24,I5W,-0.767 ± 0.2

row,Variant,abundance fitness
1,I5G,-0.933 ± 0.15
2,I5V,-0.842 ± 0.14
3,I5T,-0.914 ± 0.14
4,I5S,-0.823 ± 0.12
5,I5F,-0.827 ± 0.16
6,I5C,-1.07 ± 0.18
7,K21W,-0.201 ± 0.1
8,K21N,-0.561 ± 0.19
9,K21Y,-0.349 ± 0.14
10,K21Q,-0.106 ± 0.13
11,K21P,-0.855 ± 0.14
12,K21V,-0.463 ± 0.1
13,K21A,-0.01 ± 0.098
14,K21D,-0.818 ± 0.19
15,K21H,-0.008 ± 0.12
16,K21I,-0.581 ± 0.16
17,K21L,-0.204 ± 0.089
18,K21S,-0.406 ± 0.095
19,K21C,-0.424 ± 0.14
20,K21T,-0.949 ± 0.17
21,K21F,-0.537 ± 0.15
22,K21G,-0.656 ± 0.13
23,L19I,-0.772 ± 0.46
24,L19A,-0.892 ± 0.23

row,Variant,abundance fitness
1,L19H,-0.814 ± 0.2
2,L19G,-0.604 ± 0.17
3,L19F,-0.518 ± 0.21
4,L19N,-0.262 ± 0.35
5,L19W,-0.866 ± 0.27
6,L19S,-0.703 ± 0.17
7,L19D,-0.71 ± 0.27
8,L19C,-0.924 ± 0.27
9,L19T,-0.775 ± 0.3
10,L19Y,-0.282 ± 0.26
11,L19V,-0.814 ± 0.14
12,L19P,-0.74 ± 0.24
13,H15E,-0.123 ± 0.13
14,H15A,-0.126 ± 0.087
15,H15Q,-0.021 ± 0.11
16,H15Y,-0.409 ± 0.11
17,H15F,-0.344 ± 0.17
18,H15W,-0.631 ± 0.15
19,H15D,-0.511 ± 0.14
20,H15K,0.205 ± 0.13
21,H15S,-0.023 ± 0.089
22,H15I,0.029 ± 0.12
23,H15R,0.057 ± 0.079
24,H15V,-0.122 ± 0.088

row,Variant,abundance fitness
1,H15M,-0.134 ± 0.1
2,H15L,-0.171 ± 0.089
3,H15C,-0.171 ± 0.14
4,H15N,0.081 ± 0.12
5,H17T,0.115 ± 0.11
6,H17V,-0.485 ± 0.085
7,H17E,-0.242 ± 0.093
8,H17A,-0.252 ± 0.091
9,H17R,-0.174 ± 0.077
10,H17Y,-0.04 ± 0.11
11,H17Q,-0.098 ± 0.12
12,H17G,-0.756 ± 0.094
13,H17L,-0.292 ± 0.084
14,H17W,-0.302 ± 0.11
15,H17C,0.031 ± 0.15
16,H17D,-0.43 ± 0.12
17,H17F,-0.312 ± 0.2
18,H17K,0.094 ± 0.11
19,H17S,-0.155 ± 0.094
20,H17I,-0.068 ± 0.13
21,H17M,-0.034 ± 0.094
22,H17P,-0.91 ± 0.25
23,H17N,-0.052 ± 0.15
